Series [1] has as its target T1, HPV16 major capsid protein L1 (human papillomavirus type 16, UniProt P03101 1-505, disulfide-linked to other L1 chains in the virions).
T1 construct: major capsid protein L1 of human papillomavirus type 16, expressed from the capsid expression plasmid pXULL; Assembled with L2 and the HPV16 genome into virions; source: 293TT, transfected with pXULL (L1 and L2 expression plasmid), in virions purified by CsCl density gradient
T1 sequence: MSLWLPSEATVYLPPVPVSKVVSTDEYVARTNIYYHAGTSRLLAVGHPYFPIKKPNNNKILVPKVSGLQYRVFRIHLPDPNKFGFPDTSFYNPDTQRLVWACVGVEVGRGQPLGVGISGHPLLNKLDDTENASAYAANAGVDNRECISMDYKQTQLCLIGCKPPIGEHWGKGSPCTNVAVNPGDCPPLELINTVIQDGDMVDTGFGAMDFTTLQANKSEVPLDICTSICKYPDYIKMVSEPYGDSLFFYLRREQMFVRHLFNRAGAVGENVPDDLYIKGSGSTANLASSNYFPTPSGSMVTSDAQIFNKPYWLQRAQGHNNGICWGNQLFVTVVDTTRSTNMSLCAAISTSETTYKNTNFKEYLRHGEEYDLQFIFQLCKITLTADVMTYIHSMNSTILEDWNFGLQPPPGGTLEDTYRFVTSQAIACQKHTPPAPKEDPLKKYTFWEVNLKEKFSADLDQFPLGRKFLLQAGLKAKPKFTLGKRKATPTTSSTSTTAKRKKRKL
Description: co-sedimentation; CsCl-purified virions; SDS-PAGE and Coomassie staining-based densitometry; data not shown. To be noted: partners not purified.

Series [2] deals with the molecule itself. Description: non-reducing denaturing SDS-PAGE with immunoblot; purified virions reacted with 2 mM NEM for 1.5 h at room temperature, mixed with non-reducing SDS loading buffer (2% SDS), 7.5% gel, immunoblot for L1 and L2; shows only disulfide-linked species.

B1: HPV16 minor capsid protein L2, wild type (natural protein)
chain: MRHKRSAKRTKRASATQLYKTCKQAGTCPPDIIPKVEGKTIAEQILQYGSMGVFFGGLGIGTGSGTGGRTGYIPLGTRPPTATDTLAPVRPPLTVDPVGPSDPSIVSLVEETSFIDAGAPTSVPSIPPDVSGFSITTSTDTTPAILDINNTVTTVTTHNNPTFTDPSVLQPPTPAETGGHFTLSSSTISTHNYEEIPMDTFIVSTNPNTVTSSTPIPGSRPVARLGLYSRTTQQVKVVDPAFVTTPTKLITYDNPAYEGIDVDNTLYFSSNDNSINIAPDPDFLDIVALHRPALTSRRTGIRYSRIGNKQTLRTRSGKSIGAKVHYYYDLSTIDPAEEIELQTITPSTYTTTSHAASPTSINNGLYDIYADDFITDTSTTPVPSVPSTSLSGYIPANTTIPFGGAYNIPLVSGPDIPINITDQAPSLIPIVPGSPQYTIIADAGDFYLHPSYYMLRKRRKRLPYFFSDVSLAA
modifications: intramolecular disulfide bond C22-C28
notes: minor capsid protein L2 of human papillomavirus type 16, expressed from pXULL; AAD33258 is the entry used for the alignment and gi 4927726 the one searched in mass spectrometry; Assembled with L1 into virions; also called wild type L2; source: 293TT, transfected with pXULL (L1 and L2 expression plasmid), in virions purified by CsCl density gradient
Turning to B1, the “molecules L2 per virion” value in series [1] is approximately 22 molecules L2 per virion.

B2: HPV16 L2 C28S (natural protein)
chain: MRHKRSAKRTKRASATQLYKTCKQAGTSPPDIIPKVEGKTIAEQILQYGSMGVFFGGLGIGTGSGTGGRTGYIPLGTRPPTATDTLAPVRPPLTVDPVGPSDPSIVSLVEETSFIDAGAPTSVPSIPPDVSGFSITTSTDTTPAILDINNTVTTVTTHNNPTFTDPSVLQPPTPAETGGHFTLSSSTISTHNYEEIPMDTFIVSTNPNTVTSSTPIPGSRPVARLGLYSRTTQQVKVVDPAFVTTPTKLITYDNPAYEGIDVDNTLYFSSNDNSINIAPDPDFLDIVALHRPALTSRRTGIRYSRIGNKQTLRTRSGKSIGAKVHYYYDLSTIDPAEEIELQTITPSTYTTTSHAASPTSINNGLYDIYADDFITDTSTTPVPSVPSTSLSGYIPANTTIPFGGAYNIPLVSGPDIPINITDQAPSLIPIVPGSPQYTIIADAGDFYLHPSYYMLRKRRKRLPYFFSDVSLAA
notes: minor capsid protein L2 of human papillomavirus type 16 with C28S, expressed from a pXULL variant made by site directed mutagenesis; Assembled with L1 into virions; also called single C28S mutant; source: 293TT, transfected with mutant pXULL, in virions purified by CsCl density gradient
Regarding B2, the “molecules L2 per virion” value in series [1] is approximately 22 molecules L2 per virion. The “stoichiometry N” value in series [2] stood at 2.

B3: HPV16 L2 C22S (natural protein)
chain: MRHKRSAKRTKRASATQLYKTSKQAGTCPPDIIPKVEGKTIAEQILQYGSMGVFFGGLGIGTGSGTGGRTGYIPLGTRPPTATDTLAPVRPPLTVDPVGPSDPSIVSLVEETSFIDAGAPTSVPSIPPDVSGFSITTSTDTTPAILDINNTVTTVTTHNNPTFTDPSVLQPPTPAETGGHFTLSSSTISTHNYEEIPMDTFIVSTNPNTVTSSTPIPGSRPVARLGLYSRTTQQVKVVDPAFVTTPTKLITYDNPAYEGIDVDNTLYFSSNDNSINIAPDPDFLDIVALHRPALTSRRTGIRYSRIGNKQTLRTRSGKSIGAKVHYYYDLSTIDPAEEIELQTITPSTYTTTSHAASPTSINNGLYDIYADDFITDTSTTPVPSVPSTSLSGYIPANTTIPFGGAYNIPLVSGPDIPINITDQAPSLIPIVPGSPQYTIIADAGDFYLHPSYYMLRKRRKRLPYFFSDVSLAA
notes: minor capsid protein L2 of human papillomavirus type 16 with C22S, expressed from a pXULL variant made by site directed mutagenesis; Assembled with L1 into virions; also called single C22S mutant; source: 293TT, transfected with mutant pXULL, in virions purified by CsCl density gradient
Take B3: the “molecules L2 per virion” value in series [1] was approximately 22 molecules L2 per virion. Besides, the “stoichiometry N” value in series [2] turned out to be 2.

B4: HPV16 L2 C22/28S (natural protein)
chain: MRHKRSAKRTKRASATQLYKTSKQAGTSPPDIIPKVEGKTIAEQILQYGSMGVFFGGLGIGTGSGTGGRTGYIPLGTRPPTATDTLAPVRPPLTVDPVGPSDPSIVSLVEETSFIDAGAPTSVPSIPPDVSGFSITTSTDTTPAILDINNTVTTVTTHNNPTFTDPSVLQPPTPAETGGHFTLSSSTISTHNYEEIPMDTFIVSTNPNTVTSSTPIPGSRPVARLGLYSRTTQQVKVVDPAFVTTPTKLITYDNPAYEGIDVDNTLYFSSNDNSINIAPDPDFLDIVALHRPALTSRRTGIRYSRIGNKQTLRTRSGKSIGAKVHYYYDLSTIDPAEEIELQTITPSTYTTTSHAASPTSINNGLYDIYADDFITDTSTTPVPSVPSTSLSGYIPANTTIPFGGAYNIPLVSGPDIPINITDQAPSLIPIVPGSPQYTIIADAGDFYLHPSYYMLRKRRKRLPYFFSDVSLAA
notes: minor capsid protein L2 of human papillomavirus type 16 with C22S and C28S, expressed from a pXULL variant made by site directed mutagenesis; Assembled with L1 into virions; also called double mutant; source: 293TT, transfected with mutant pXULL, in virions purified by CsCl density gradient
On to B4, for which the “molecules L2 per virion” value in series [1] was approximately 22 molecules L2 per virion.

The stoichiometry N is the number of molecules, sites or subunits per partner or assembly.
